Data on 19 molecules can be found in US20210388087A1 (Chugai, published 2021).

B1: H183/L072 VH A57K (antibody, name in Kabat numbering, V domains shown)
VH: QVQLVESGGGLVQPGRSLRLSCAASGFTFSNAWMHWVRQAPGKGLEWVAQIKDKGNAYAKYYAPSVKGRFTISRDDSKNSIYLQMNSLKTEDTAVYYCHYVHYASASTVLPAFGVDAWGQGTTVTVSS
VL: DIVMTQSPLSLPVTPGEPASISCQASQELVHMNRNTYLHWYQQKPGQAPRLLIYKVSNRFPGVPDRFSGSGSGTDFTLKISRVEAEDVGVYYCAQGTSVPFTFGQGTKLEIK
B2: H183/L072 VH A60D (antibody, name in Kabat numbering, V domains shown)
VH: QVQLVESGGGLVQPGRSLRLSCAASGFTFSNAWMHWVRQAPGKGLEWVAQIKDKGNAYAAYYDPSVKGRFTISRDDSKNSIYLQMNSLKTEDTAVYYCHYVHYASASTVLPAFGVDAWGQGTTVTVSS
VL: DIVMTQSPLSLPVTPGEPASISCQASQELVHMNRNTYLHWYQQKPGQAPRLLIYKVSNRFPGVPDRFSGSGSGTDFTLKISRVEAEDVGVYYCAQGTSVPFTFGQGTKLEIK
B3: H183/L072 VH A57Q (antibody, name in Kabat numbering, V domains shown)
VH: QVQLVESGGGLVQPGRSLRLSCAASGFTFSNAWMHWVRQAPGKGLEWVAQIKDKGNAYAQYYAPSVKGRFTISRDDSKNSIYLQMNSLKTEDTAVYYCHYVHYASASTVLPAFGVDAWGQGTTVTVSS
VL: DIVMTQSPLSLPVTPGEPASISCQASQELVHMNRNTYLHWYQQKPGQAPRLLIYKVSNRFPGVPDRFSGSGSGTDFTLKISRVEAEDVGVYYCAQGTSVPFTFGQGTKLEIK
B4: H183/L072 VH A57M (antibody, name in Kabat numbering, V domains shown)
VH: QVQLVESGGGLVQPGRSLRLSCAASGFTFSNAWMHWVRQAPGKGLEWVAQIKDKGNAYAMYYAPSVKGRFTISRDDSKNSIYLQMNSLKTEDTAVYYCHYVHYASASTVLPAFGVDAWGQGTTVTVSS
VL: DIVMTQSPLSLPVTPGEPASISCQASQELVHMNRNTYLHWYQQKPGQAPRLLIYKVSNRFPGVPDRFSGSGSGTDFTLKISRVEAEDVGVYYCAQGTSVPFTFGQGTKLEIK
B5: H183/L072 VH A57P (antibody, name in Kabat numbering, V domains shown)
VH: QVQLVESGGGLVQPGRSLRLSCAASGFTFSNAWMHWVRQAPGKGLEWVAQIKDKGNAYAPYYAPSVKGRFTISRDDSKNSIYLQMNSLKTEDTAVYYCHYVHYASASTVLPAFGVDAWGQGTTVTVSS
VL: DIVMTQSPLSLPVTPGEPASISCQASQELVHMNRNTYLHWYQQKPGQAPRLLIYKVSNRFPGVPDRFSGSGSGTDFTLKISRVEAEDVGVYYCAQGTSVPFTFGQGTKLEIK
B6: H183/L072 VH A60I (antibody, name in Kabat numbering, V domains shown)
VH: QVQLVESGGGLVQPGRSLRLSCAASGFTFSNAWMHWVRQAPGKGLEWVAQIKDKGNAYAAYYIPSVKGRFTISRDDSKNSIYLQMNSLKTEDTAVYYCHYVHYASASTVLPAFGVDAWGQGTTVTVSS
VL: DIVMTQSPLSLPVTPGEPASISCQASQELVHMNRNTYLHWYQQKPGQAPRLLIYKVSNRFPGVPDRFSGSGSGTDFTLKISRVEAEDVGVYYCAQGTSVPFTFGQGTKLEIK
B7: H183/L072 VH A57S (antibody, name in Kabat numbering, V domains shown)
VH: QVQLVESGGGLVQPGRSLRLSCAASGFTFSNAWMHWVRQAPGKGLEWVAQIKDKGNAYASYYAPSVKGRFTISRDDSKNSIYLQMNSLKTEDTAVYYCHYVHYASASTVLPAFGVDAWGQGTTVTVSS
VL: DIVMTQSPLSLPVTPGEPASISCQASQELVHMNRNTYLHWYQQKPGQAPRLLIYKVSNRFPGVPDRFSGSGSGTDFTLKISRVEAEDVGVYYCAQGTSVPFTFGQGTKLEIK
B8: H183/L072 VH A57L (antibody, name in Kabat numbering, V domains shown)
VH: QVQLVESGGGLVQPGRSLRLSCAASGFTFSNAWMHWVRQAPGKGLEWVAQIKDKGNAYALYYAPSVKGRFTISRDDSKNSIYLQMNSLKTEDTAVYYCHYVHYASASTVLPAFGVDAWGQGTTVTVSS
VL: DIVMTQSPLSLPVTPGEPASISCQASQELVHMNRNTYLHWYQQKPGQAPRLLIYKVSNRFPGVPDRFSGSGSGTDFTLKISRVEAEDVGVYYCAQGTSVPFTFGQGTKLEIK
B9: H183/L072 VH A57T (antibody, name in Kabat numbering, V domains shown)
VH: QVQLVESGGGLVQPGRSLRLSCAASGFTFSNAWMHWVRQAPGKGLEWVAQIKDKGNAYATYYAPSVKGRFTISRDDSKNSIYLQMNSLKTEDTAVYYCHYVHYASASTVLPAFGVDAWGQGTTVTVSS
VL: DIVMTQSPLSLPVTPGEPASISCQASQELVHMNRNTYLHWYQQKPGQAPRLLIYKVSNRFPGVPDRFSGSGSGTDFTLKISRVEAEDVGVYYCAQGTSVPFTFGQGTKLEIK
B10: H183/L072 VH A57N (antibody, name in Kabat numbering, V domains shown)
VH: QVQLVESGGGLVQPGRSLRLSCAASGFTFSNAWMHWVRQAPGKGLEWVAQIKDKGNAYANYYAPSVKGRFTISRDDSKNSIYLQMNSLKTEDTAVYYCHYVHYASASTVLPAFGVDAWGQGTTVTVSS
VL: DIVMTQSPLSLPVTPGEPASISCQASQELVHMNRNTYLHWYQQKPGQAPRLLIYKVSNRFPGVPDRFSGSGSGTDFTLKISRVEAEDVGVYYCAQGTSVPFTFGQGTKLEIK
B11: H183/L072 VH A60H (antibody, name in Kabat numbering, V domains shown)
VH: QVQLVESGGGLVQPGRSLRLSCAASGFTFSNAWMHWVRQAPGKGLEWVAQIKDKGNAYAAYYHPSVKGRFTISRDDSKNSIYLQMNSLKTEDTAVYYCHYVHYASASTVLPAFGVDAWGQGTTVTVSS
VL: DIVMTQSPLSLPVTPGEPASISCQASQELVHMNRNTYLHWYQQKPGQAPRLLIYKVSNRFPGVPDRFSGSGSGTDFTLKISRVEAEDVGVYYCAQGTSVPFTFGQGTKLEIK
B12: H183/L072 VH A60K (antibody, name in Kabat numbering, V domains shown)
VH: QVQLVESGGGLVQPGRSLRLSCAASGFTFSNAWMHWVRQAPGKGLEWVAQIKDKGNAYAAYYKPSVKGRFTISRDDSKNSIYLQMNSLKTEDTAVYYCHYVHYASASTVLPAFGVDAWGQGTTVTVSS
VL: DIVMTQSPLSLPVTPGEPASISCQASQELVHMNRNTYLHWYQQKPGQAPRLLIYKVSNRFPGVPDRFSGSGSGTDFTLKISRVEAEDVGVYYCAQGTSVPFTFGQGTKLEIK
B13: H183/L072 VH A57R (antibody, name in Kabat numbering, V domains shown)
VH: QVQLVESGGGLVQPGRSLRLSCAASGFTFSNAWMHWVRQAPGKGLEWVAQIKDKGNAYARYYAPSVKGRFTISRDDSKNSIYLQMNSLKTEDTAVYYCHYVHYASASTVLPAFGVDAWGQGTTVTVSS
VL: DIVMTQSPLSLPVTPGEPASISCQASQELVHMNRNTYLHWYQQKPGQAPRLLIYKVSNRFPGVPDRFSGSGSGTDFTLKISRVEAEDVGVYYCAQGTSVPFTFGQGTKLEIK
B14: H183/L072 VH A57W (antibody, name in Kabat numbering, V domains shown)
VH: QVQLVESGGGLVQPGRSLRLSCAASGFTFSNAWMHWVRQAPGKGLEWVAQIKDKGNAYAWYYAPSVKGRFTISRDDSKNSIYLQMNSLKTEDTAVYYCHYVHYASASTVLPAFGVDAWGQGTTVTVSS
VL: DIVMTQSPLSLPVTPGEPASISCQASQELVHMNRNTYLHWYQQKPGQAPRLLIYKVSNRFPGVPDRFSGSGSGTDFTLKISRVEAEDVGVYYCAQGTSVPFTFGQGTKLEIK
B15: H183/L072 VH A57V (antibody, name in Kabat numbering, V domains shown)
VH: QVQLVESGGGLVQPGRSLRLSCAASGFTFSNAWMHWVRQAPGKGLEWVAQIKDKGNAYAVYYAPSVKGRFTISRDDSKNSIYLQMNSLKTEDTAVYYCHYVHYASASTVLPAFGVDAWGQGTTVTVSS
VL: DIVMTQSPLSLPVTPGEPASISCQASQELVHMNRNTYLHWYQQKPGQAPRLLIYKVSNRFPGVPDRFSGSGSGTDFTLKISRVEAEDVGVYYCAQGTSVPFTFGQGTKLEIK
B16: H183/L072 VH A57Y (antibody, name in Kabat numbering, V domains shown)
VH: QVQLVESGGGLVQPGRSLRLSCAASGFTFSNAWMHWVRQAPGKGLEWVAQIKDKGNAYAYYYAPSVKGRFTISRDDSKNSIYLQMNSLKTEDTAVYYCHYVHYASASTVLPAFGVDAWGQGTTVTVSS
VL: DIVMTQSPLSLPVTPGEPASISCQASQELVHMNRNTYLHWYQQKPGQAPRLLIYKVSNRFPGVPDRFSGSGSGTDFTLKISRVEAEDVGVYYCAQGTSVPFTFGQGTKLEIK
B17: H183/L072 VH A60E (antibody, name in Kabat numbering, V domains shown)
VH: QVQLVESGGGLVQPGRSLRLSCAASGFTFSNAWMHWVRQAPGKGLEWVAQIKDKGNAYAAYYEPSVKGRFTISRDDSKNSIYLQMNSLKTEDTAVYYCHYVHYASASTVLPAFGVDAWGQGTTVTVSS
VL: DIVMTQSPLSLPVTPGEPASISCQASQELVHMNRNTYLHWYQQKPGQAPRLLIYKVSNRFPGVPDRFSGSGSGTDFTLKISRVEAEDVGVYYCAQGTSVPFTFGQGTKLEIK
B18: H183/L072 VH A60F (antibody, name in Kabat numbering, V domains shown)
VH: QVQLVESGGGLVQPGRSLRLSCAASGFTFSNAWMHWVRQAPGKGLEWVAQIKDKGNAYAAYYFPSVKGRFTISRDDSKNSIYLQMNSLKTEDTAVYYCHYVHYASASTVLPAFGVDAWGQGTTVTVSS
VL: DIVMTQSPLSLPVTPGEPASISCQASQELVHMNRNTYLHWYQQKPGQAPRLLIYKVSNRFPGVPDRFSGSGSGTDFTLKISRVEAEDVGVYYCAQGTSVPFTFGQGTKLEIK
B19: H183/L072 VH A60G (antibody, name in Kabat numbering, V domains shown)
VH: QVQLVESGGGLVQPGRSLRLSCAASGFTFSNAWMHWVRQAPGKGLEWVAQIKDKGNAYAAYYGPSVKGRFTISRDDSKNSIYLQMNSLKTEDTAVYYCHYVHYASASTVLPAFGVDAWGQGTTVTVSS
VL: DIVMTQSPLSLPVTPGEPASISCQASQELVHMNRNTYLHWYQQKPGQAPRLLIYKVSNRFPGVPDRFSGSGSGTDFTLKISRVEAEDVGVYYCAQGTSVPFTFGQGTKLEIK

The target of the assay is T1, Human CD3eg linker (human).
T1 construct: Single chain: epsilon and gamma subunits of human CD3 joined by a 29-mer linker, Flag-tag at the C-terminus; also called recombinant human CD3
T1 chain: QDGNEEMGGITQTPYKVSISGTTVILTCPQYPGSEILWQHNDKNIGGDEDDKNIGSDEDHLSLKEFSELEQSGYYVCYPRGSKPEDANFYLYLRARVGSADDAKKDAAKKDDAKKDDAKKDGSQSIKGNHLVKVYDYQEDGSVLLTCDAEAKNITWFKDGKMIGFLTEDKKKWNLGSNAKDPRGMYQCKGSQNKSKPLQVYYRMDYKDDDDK
The assay can be described thus: Biacore SPR, vs template H183/L072.
As to B1, the “fold change of affinity” value amounted to 1.5 fold.

B2: the “fold change of affinity” value is 1.3 fold. The value for B3 was 1.1 fold; that for B4 was 0.9 fold.

With B5, the “fold change of affinity” value stood at 0.9 fold.

Regarding B6, the “fold change of affinity” value is 0.6 fold. Regarding B7, the “fold change of affinity” value amounted to 1.1 fold. Take B8: the “fold change of affinity” value was 0.5 fold. B9: the “fold change of affinity” value is 1.3 fold.

Consider B10, for which the “fold change of affinity” value stood at 0.7 fold. For B11, the “fold change of affinity” value was 1.1 fold. As for B12, the “fold change of affinity” value was 0.9 fold. The value for B13 was 1.3 fold. For the molecule B14, the “fold change of affinity” value was 0.4 fold.

B15: the “fold change of affinity” value came out at 0.9 fold. Turning to B16, the “fold change of affinity” value worked out at 0.4 fold. In the case of B17, the “fold change of affinity” value amounted to 1.1 fold. For B18, the “fold change of affinity” value was found to be 0.7 fold. With B19, the “fold change of affinity” value was determined as 1.9 fold.
